Test results published in the supplement of paper PMC9732359.
± gives the uncertainty stated by the source.

Test: protein stability index of a GFP-peptide fusion (yeast GPS) (PSI 1-4); higher = more stable; sorted into four equal gates, so the index is relative within each strain
How it was run: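 Peptides tiling yeast proteins in 17-residue segments were fused downstream of GFP, with Cherry expressed from the same plasmid. As a pooled library in yeast, mid-log cultures grown in leucine-free medium were sorted into four equal gates by GFP/Cherry fluorescence ratio. Gate plasmids were PCR-amplified and Illumina-sequenced, and barcodes linked reads to strains. Each peptide received a protein stability index equal to the sum of each gate's read frequency times its gate number.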

Q: For RYNAKAIGSGSEGAQAE [PUP2], which protein stability index (doa10∆) is on record?
A: 3.24 ± 0.093

Q: And the protein stability index (pdr5∆)?
A: 3.14 ± 0.093

Q: And the protein stability index (san1∆)?
A: 3.36 ± 0.062

Q: What about the protein stability index (ubr1∆) of the same sequence?
A: 2.98 ± 0.075

Q: Which protein stability index (doa10∆) does the source give for RYSMSEQFPFYLHDNAS [IRR1] here?
A: 3.02 ± 0.09

Q: And the protein stability index (pdr5∆)?
A: 3.01 ± 0.06

Q: And the protein stability index (san1∆)?
A: 2.97 ± 0.063

Q: What about the protein stability index (ubr1∆) of the same sequence?
A: 3.03 ± 0.042

Q: With RYWVQKERSDGKRHIFD [CDC53] as the sequence, how does the protein stability index (doa10∆) read?
A: 2.49 ± 0.2

Q: And the protein stability index (pdr5∆)?
A: 2.98 ± 0.26

Q: What about the protein stability index (san1∆) of the same sequence?
A: 3.46 ± 0.13

Q: What about the protein stability index (ubr1∆) of the same sequence?
A: 2.91 ± 0.14

Q: For SAAAAGNRNSSSVFLPS [BRR2], which protein stability index (doa10∆) is on record?
A: 3.13 ± 0.062

Q: And the protein stability index (pdr5∆)?
A: 3.17 ± 0.063

Q: And the protein stability index (san1∆)?
A: 3.13 ± 0.046

Q: And the protein stability index (ubr1∆)?
A: 3.15 ± 0.059

Q: Which protein stability index (doa10∆) does the source give for SAARGLSLVYEIGGSDL [ECM29] here?
A: 2.18 ± 0.058

Q: What about the protein stability index (pdr5∆) of the same sequence?
A: 1.94 ± 0.065

Q: What about the protein stability index (san1∆) of the same sequence?
A: 3.33 ± 0.067

Q: And the protein stability index (ubr1∆)?
A: 1.73 ± 0.056

Q: For SAGAVFKSSVEMGKTDK [YOR098C/NUP1], which protein stability index (doa10∆) is on record?
A: 3.5 ± 0.095

Q: What about the protein stability index (pdr5∆) of the same sequence?
A: 3.25 ± 0.1

Q: What about the protein stability index (san1∆) of the same sequence?
A: 3.29 ± 0.058

Q: And the protein stability index (ubr1∆)?
A: 3.47 ± 0.047

Q: For SAGFETDLRLSTNGLGM [SNU114], which protein stability index (doa10∆) is on record?
A: 3.43 ± 0.1

Q: What about the protein stability index (pdr5∆) of the same sequence?
A: 3.46 ± 0.12

Q: And the protein stability index (san1∆)?
A: 2.98 ± 0.22

Q: What about the protein stability index (ubr1∆) of the same sequence?
A: 3.13 ± 0.22

Q: Which results are given for SAGLDSAQQNLASSFVN [RPN1]?
A: protein stability index (pdr5∆): 2.96 ± 0.16; protein stability index (san1∆): 2.79 ± 0.17; protein stability index (ubr1∆): 3.2 ± 0.2

Q: For SAHQSPIMQTQMPLNSN [SNF2], which protein stability index (doa10∆) is on record?
A: 2.94 ± 0.11

Q: What about the protein stability index (pdr5∆) of the same sequence?
A: 2.37 ± 0.091

Q: And the protein stability index (san1∆)?
A: 2.54 ± 0.075

Q: And the protein stability index (ubr1∆)?
A: 2.17 ± 0.053

Q: For SAIRKCVRVQLIKNGKK [RPS23A], which protein stability index (doa10∆) is on record?
A: 2.91 ± 0.081

Q: What about the protein stability index (pdr5∆) of the same sequence?
A: 3.02 ± 0.069

Q: And the protein stability index (san1∆)?
A: 2.45 ± 0.12

Q: What about the protein stability index (ubr1∆) of the same sequence?
A: 3.19 ± 0.095

Q: For SALWSSRKGIAFGLGAI [ECM29], which protein stability index (doa10∆) is on record?
A: 2.59 ± 0.13

Q: What about the protein stability index (pdr5∆) of the same sequence?
A: 2.89 ± 0.094

Q: And the protein stability index (san1∆)?
A: 2.2 ± 0.13

Q: And the protein stability index (ubr1∆)?
A: 2.55 ± 0.089

Q: Which protein stability index (ubr1∆) does the source give for SAPKISSEIDRENVKSK [SIR4] here?
A: 3.35 ± 0.15

Q: Which protein stability index (doa10∆) does the source give for SARNYDKFKLNENDLKT [SMC1] here?
A: 2.55 ± 0.093

Q: And the protein stability index (pdr5∆)?
A: 2.46 ± 0.088

Q: What about the protein stability index (san1∆) of the same sequence?
A: 2.35 ± 0.22

Q: And the protein stability index (ubr1∆)?
A: 2.53 ± 0.063

Q: Which protein stability index (doa10∆) does the source give for SARSSVHESLVTQSNIL [SRB8] here?
A: 2.77 ± 0.078

Q: What about the protein stability index (pdr5∆) of the same sequence?
A: 3.04 ± 0.076

Q: What about the protein stability index (san1∆) of the same sequence?
A: 2.81 ± 0.061

Q: And the protein stability index (ubr1∆)?
A: 2.83 ± 0.086

Q: Which protein stability index (doa10∆) does the source give for SASLHTRSLKYGKLRNG [RRP4] here?
A: 1.58 ± 0.075

Q: What about the protein stability index (pdr5∆) of the same sequence?
A: 2.15 ± 0.11

Q: What about the protein stability index (san1∆) of the same sequence?
A: 1.08 ± 0.13

Q: And the protein stability index (ubr1∆)?
A: 2.82 ± 0.16

Q: With SASPHLAPNMQLNGNET [SNF2] as the sequence, how does the protein stability index (doa10∆) read?
A: 3.23 ± 0.041

Q: What about the protein stability index (pdr5∆) of the same sequence?
A: 2.96 ± 0.043

Q: What about the protein stability index (san1∆) of the same sequence?
A: 3.1 ± 0.025

Q: And the protein stability index (ubr1∆)?
A: 3.256 ± 0.032

Q: Which results are given for SASVRALIENWAADSVS [FAS1]?
A: protein stability index (doa10∆): 2.46 ± 0.078; protein stability index (pdr5∆): 2.48 ± 0.094; protein stability index (san1∆): 2.59 ± 0.097; protein stability index (ubr1∆): 2.76 ± 0.091

Q: With SAVKPRPLKLERGFACI [FAS1] as the sequence, how does the protein stability index (doa10∆) read?
A: 2.16 ± 0.092

Q: And the protein stability index (pdr5∆)?
A: 2.36 ± 0.064

Q: What about the protein stability index (san1∆) of the same sequence?
A: 2.06 ± 0.082

Q: And the protein stability index (ubr1∆)?
A: 2.42 ± 0.071

Q: With SDDIISQVDPITLFVLV [FAS2] as the sequence, how does the protein stability index (doa10∆) read?
A: 1.19 ± 0.045

Q: And the protein stability index (pdr5∆)?
A: 1.38 ± 0.068

Q: What about the protein stability index (san1∆) of the same sequence?
A: 1.33 ± 0.17

Q: What about the protein stability index (ubr1∆) of the same sequence?
A: 1.23 ± 0.064

Q: What does the source list for SDDYDNEGAASSNPQSA [SMC1]?
A: protein stability index (doa10∆): 2.91 ± 0.16; protein stability index (pdr5∆): 3.42 ± 0.13; protein stability index (san1∆): 2.65 ± 0.12; protein stability index (ubr1∆): 3.13 ± 0.051

Q: What does the source list for SDFTFPEYYSTARVMGG [DIS3]?
A: protein stability index (doa10∆): 1.57 ± 0.073; protein stability index (pdr5∆): 1.39 ± 0.084; protein stability index (ubr1∆): 1.38 ± 0.13

Q: Which protein stability index (doa10∆) does the source give for SDIPVSENVFEGLTYKY [SSN3] here?
A: 1.82 ± 0.078

Q: What about the protein stability index (pdr5∆) of the same sequence?
A: 1.89 ± 0.1

Q: And the protein stability index (ubr1∆)?
A: 1.98 ± 0.042

Q: With SDNNSRIMSRNFYLKRF [SWI1] as the sequence, how does the protein stability index (doa10∆) read?
A: 2.73 ± 0.066

Q: What about the protein stability index (pdr5∆) of the same sequence?
A: 2.67 ± 0.079

Q: And the protein stability index (san1∆)?
A: 2.95 ± 0.099

Q: And the protein stability index (ubr1∆)?
A: 3.09 ± 0.063

Q: For SDSSSEDEVKVEGPKFT [YLR335W/NUP2], which protein stability index (doa10∆) is on record?
A: 3.4 ± 0.12

Q: What about the protein stability index (pdr5∆) of the same sequence?
A: 3.47 ± 0.13

Q: What about the protein stability index (san1∆) of the same sequence?
A: 3.4 ± 0.06

Q: What about the protein stability index (ubr1∆) of the same sequence?
A: 3.44 ± 0.16

Q: Which protein stability index (doa10∆) does the source give for SDVLFEFTKINTPLVGA [YJL039C/NUP192] here?
A: 1.66 ± 0.042

Q: And the protein stability index (pdr5∆)?
A: 1.66 ± 0.045

Q: And the protein stability index (san1∆)?
A: 1.45 ± 0.088

Q: What about the protein stability index (ubr1∆) of the same sequence?
A: 1.47 ± 0.037

Q: With SDVLRFLQRVRVWEYRQ [RPL15A] as the sequence, how does the protein stability index (doa10∆) read?
A: 1.34 ± 0.083

Q: What about the protein stability index (pdr5∆) of the same sequence?
A: 1.88 ± 0.066

Q: What about the protein stability index (san1∆) of the same sequence?
A: 1.71 ± 0.083

Q: And the protein stability index (ubr1∆)?
A: 2.01 ± 0.054
